Experimental data reported in publication doi:10.1101/2020.04.20.050518.

Target: 50S ribosomal subunit
Test: cryo-EM 2D classification

stoichiometry N: 2
Substance: 50S ribosomal subunit (complex)
